# In patent US11904004B2, “Anti-CD277 antibodies” (INSTITUT NATIONAL DE LA SANTE ET DE LA RECHERCHE MEDICALE …, priority 2010, dated 2024):
# How the values were obtained:
# Type in all cases: cell-based, human
# primary AML blasts [1] = assay: Chromium release assay, lysis of primary AML blasts by NK cells
# Method: Effector γδ T cells were established and maintained as previously described^28. PBMC from HV were stimulated with ZOL (1 μm) and rhlL-2 (200 IU/ml) at Day 0. From Day 5, rhIL-2 was renewed every two days and cells were kept at 1.5×10^6/m1 for 15 days. NK cells were isolated using EASYSEP® Human NK cell enrichment kit (StemCell Technologies). The purity of γδ T cells and NK cells was determined by flow cytometry and respectively greater than 80% and 98%. The Burkitt lymphoma cell line, DAUDI, the human AML cell line, U937, and the erythroleukemic cell line, K562, were obtained from the American Type Culture Collection and cultured (0.5×10^6/ml) in RPMI 1640 medium with 10% FCS. […]
# (§1) 0.5×10^6 target cells were incubated with 50 pCi of ^51Cr (Perkin-Elmer) for AML blasts and 10 pCi for DAUDI and K562 cells for 90 minutes and mixed with effector cells in a Effector:Target (E:T) ratio of […]. After 4 hours of incubation at 37° C., 50p1 supernatant of each sample was transferred in LUMA® plates and radioactivity was determined by a gamma counter. The percentage of specific lysis was calculated using the formula [(experimental−spontaneous release/total−spontaneous release)×100] and expressed as the mean of triplicate.
# Vγ9Vδ2 T cells = assay: Flow cytometry of Vγ9Vδ2 T cells co-cultured with AML blasts (trogocytosis, CD107a, cytokines)
# Method: 2×10^5 PBMC were washed in PBS (Cambrex Bio Science) and incubated at 4° C. for 20 min with specified mAb. Following incubation and washing, samples were analyzed on LSRFORTESSA® or FACS CANTO® II (Becton Dickinson) using DIVA® software (BD bioscience, Mountain View, Calif.). For analysis of CD107 expression, γδ T cells were incubated at 37° C. in the presence of anti-CD107a and GOLGISTOP® with or without anti-BTN3A 20.1 mAb. After 4 hours, cells were collected, washed in PBS and analyzed by flow cytometry. To study cytokine production, cells were further permeabilized with PERMWASH® (BD bioscience) to allow intracellular staining with labeled antibodies. Trogocytosis of PKH67 (Sigma Aldrich) labeled blasts by γδ T cells was quantified as previously described^29.
# iDC = assay: Costimulatory molecules expression on iDC, flow cytometry; conditions: coated mAb
# Method: Blood samples were obtained from 5 healthy volunteers enrolled among the staff members, after informed consent. Monocytes were separated from peripheral blood mononuclear cells, and isolated using the MACS CD14 isolation kit (Miltenyi Biotech, Auburn, Calif. USA). Monocytes were cultured for 5 days with 200 ng/ml of recombinant human GM-CSF and 10 ng/ml recombinant human IL-4 (Schering-Plough Research Institute). These cells were termed immature dendritic cells (iDC). To achieve the stimulation, monocytes and iDC were cultured with 10 ng/ml of LPS, ligand for TLR4, 30 μg/ml of 8848 (Sigma-Aldrich, Milano, Italy), ligand for TLR7/8 and with […] of poly (I:C) (Sigma-Aldrich), ligand for TLR3, and were harvested after 48 h. The cells were cultured in RPMI 1640 supplemented with 10% heat-inactivated FCS, 5 mM L-glutamine and 50 IU/ml penicillin-streptomycin (from here on referred to as complete medium).
# Monocytes and iDCs before and after stimulation were analysed by imunofluorescence flow cytometry (FACScalibur Becton Dickinson, Milano, Italy) to verify their activation state. […]
# primary AML blasts [2] = assay: Chromium release assay, lysis of primary AML blasts by Vγ9Vδ2 T cells
# Method: Effector γδ T cells were established and maintained as previously described^28. PBMC from HV were stimulated with ZOL (1 μm) and rhlL-2 (200 IU/ml) at Day 0. From Day 5, rhIL-2 was renewed every two days and cells were kept at 1.5×10^6/m1 for 15 days. NK cells were isolated using EASYSEP® Human NK cell enrichment kit (StemCell Technologies). The purity of γδ T cells and NK cells was determined by flow cytometry and respectively greater than 80% and 98%. The Burkitt lymphoma cell line, DAUDI, the human AML cell line, U937, and the erythroleukemic cell line, K562, were obtained from the American Type Culture Collection and cultured (0.5×10^6/ml) in RPMI 1640 medium with 10% FCS. BTN3A Knock-down HEK293FT cells (sh #284; clone #30) were provided by E.Scotet (Inserm U892, Nantes), cultured and transfected with BTN3A1, BTN3A2, BTN3A3 mutated cDNA-containing plasmids, as described^23.
# as §1
# CD4+ T cells = assay: AKT and ERK phosphorylation, phosphoflow
# Method: Human CD4^+ T cells were purified by negative selection from PBMCs using magnetic beads (MILTENYI BIOTEC®) according to the manufacturer's protocol. CD4 T cells were routinely more than 97% pure. Cells were incubated 24 hours in RPMI 1640 10% FBS at 37° C.
# CD4^+ T cells were washed and stimulated at different times (2, 5, 10 and 30 minutes) with aAPC at a ratio of 1:3 (cells to beads) comprised of magnetic beads (DYNABEADS® M-450 Epoxy, Dynal Biotech) were coated with the following mAbs: anti-CD3 (OKT3), anti-human CD28 (CD28.2), and/or various concentrations of anti-human CD277 (CD277. 20.1 clone) or isotype control IgG1. These aAPCs were coated with suboptimal anti-CD3 Ab (5%), suboptimal levels of anti-CD28 Ab (10%), and either IgG1 Ab (CD3/CD28/IgG1), anti-CD277.20.1 Ab (CD3/CD28/CD277.20.1+IgG1), constituting the remaining 85% of protein added to the bead. The amount of protein was kept constant at […] by the addition of control IgG1. We examined the effect of mAbs CD277 clones engagement on AKT and ERK phosphorylation in CD4+T cells by PHOSPHOFLOW® proteomic method, which uses state-specific antibodies to detect target phosphoproteins by fluorescence-activated cell sorting (FACS). We assessed the activity of the signalling pathways after exposure of the cells to beads stimulations. We apply a sandwich-labeling method, which involves the application of a biotin-conjugated secondary antibody followed by detection with fluorescently conjugated streptavidin. […] Cells were permeabilized, fixed and analyzed after intracellular staining of the target phosphproteins (AKT and ERK) by the use of CYTOFIX/CYTOPERM® KIT and perm/wash buffer (BD Biosciences).
# [3] = 4-hour co-culture with AML blasts
# [4] = antibody-coated beads, anti-CD3 plus anti-CD277
# [5] = with anti-CD3 plus anti-CD28, 2, 5, 10 and 30 minutes, dose and time dependent
molecule,measurement,setting,value
"mAb 20.1: murine anti-CD277 antibody obtainable from the hybridoma CNCM I-4402; agonist (antibody, V domains shown) VH: QVQLQQSGAELVKPGASVKLSCKASGYTFTRYYLYWVKQRPGQGLEWIGEINPNNGGTKFNEKFKSKATLTVDKSSRTTYIQLSSLTSEDSAVYYCSREDDYDGTPDAMDYWGQGTAVTVSS VL: DIQMNQSPSSLSASLGDTITITCHASQNINLWLSWYQQRPGNIPKLLIYRASNLHTGVPSRFSGSGSATGFTLTISSLQPEDIATYYCQQGHSYPYTFGGGTKLDIK",NK cells-mediated AML blasts lysis,primary AML blasts [1],no effect
same,cytokine production of IFNγ by Vγ9Vδ2 T cells,Vγ9Vδ2 T cells; [3],greater
same,cytokine production of TNFα by Vγ9Vδ2 T cells,Vγ9Vδ2 T cells; [3],greater
same,degranulation assessed by the expression of CD107a,Vγ9Vδ2 T cells; [3],greater ability to degranulate
same,trogocytosis of AML blasts by Vγ9Vδ2 T cells,"Vγ9Vδ2 T cells; 1 hour co-culture, vs IgG1",significantly enhanced
same,"expression of CD80, CD86 and HLA-DR on iDC",iDC,increased expression
same,Vγ9Vδ2 T cell lysis of ZOL-resistant or ZOL-poorly responsive AML blasts,primary AML blasts [2]; E:T 30:1,significantly enhanced
same,enhancement of Vγ9Vδ2 T cells lysis of AML blasts compared with BrHpp,"primary AML blasts [2]; E:T 30:1, ZOL 45 μM O/N, 20.1 mAb 10 μg/ml, BrHpp 2 μM",significantly more efficient
same,specific lysis of AML blasts,"primary AML blasts [2]; Vγ9Vδ2 T cells pre-incubated with mAb (10 μg/ml, 90 minutes), washed",~4.36±2.11%
same,"AML blasts lysis by Vγ9Vδ2 T cells, addition to ZOL",primary AML blasts [2]; anti-BTN3A 20.1 mAb added to ZOL,poor but significant
same,specific lysis of AML blasts,"primary AML blasts [2]; blasts pre-incubated with mAb (10 μg/ml, 90 minutes), washed",22.92±7.64%
same,sensitization of blasts from UPN09 to Vγ9Vδ2 T cells lysis in vitro,primary AML blasts [2]; data not shown,highly sensitized
same,specific lysis of AML blasts,"primary AML blasts [2]; simultaneous incubation of effector cells, target cells and mAb",35.95±1.16%
same,phosphorylation of AKT,CD4+ T cells; [4],induced the phosphorylation
same,phosphorylation of ERK,CD4+ T cells; [4],induced the phosphorylation
same,phosphorylation of AKT induced by CD3+CD28 stimulation,CD4+ T cells; [5],strongly up regulated
same,phosphorylation of ERK induced by CD3+CD28 stimulation,CD4+ T cells; [5],strongly up regulated
